Measurements: patent publication US20120034160A1 (AbbVie / Abbott, published 2012)

T1: Recombinant Human IL-17 (human, UniProt Q16552 20-155, limits assumed)
T1 construct: bought reagent
T1 sequence (looked up): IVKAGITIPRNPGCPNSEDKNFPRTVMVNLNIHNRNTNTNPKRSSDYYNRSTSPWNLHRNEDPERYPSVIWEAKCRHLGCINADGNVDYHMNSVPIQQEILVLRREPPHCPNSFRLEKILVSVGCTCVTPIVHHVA


Experiments:
[1] = target: T1, Recombinant Human IL-17; assay: Biacore SPR; N-terminal VD
Procedure: (§1) The BIACORE assay (Biacore, Inc, Piscataway, N.J.) determines the affinity of antibodies or DVD-Ig with kinetic measurements of on-rate and off-rate constants. Binding of antibodies or DVD-Ig to a target antigen (for example, a purified recombinant target antigen) was determined by surface plasmon resonance-based measurements with a Biacore® 1000 or 3000 instrument (Biacore® AB, Uppsala, Sweden) using running HBS-EP (10 mM HEPES [pH 7.4], 150 mM NaCl, 3 mM EDTA, and 0.005% surfactant P20) at 25° C. All chemicals were obtained from Biacore® AB (Uppsala, Sweden) or otherwise from a different source as described in the text. For example, approximately 5000 RU of goat anti-mouse IgG, (Fcγ), fragment specific polyclonal antibody (Pierce Biotechnology Inc, Rockford, Ill.) diluted in 10 mM sodium acetate (pH 4.5) was directly immobilized across a CM5 research grade biosensor chip using a standard amine coupling kit according to manufacturer's instructions and procedures at 25 μg/ml. Unreacted moieties on the biosensor surface were blocked with ethanolamine. Modified carboxymethyl dextran surface in flowcell 2 and 4 was used as a reaction surface. Unmodified carboxymethyl dextran without goat anti-mouse IgG in flow cell 1 and 3 was used as the reference surface. For kinetic analysis, rate equations derived from the 1:1 Langmuir binding model were fitted simultaneously to association and dissociation phases of all eight injections (using global fit analysis) with the use of Biaevaluation 4.0.1 software. Purified antibodies or DVD-Ig were diluted in HEPES-buffered saline for capture across goat anti-mouse IgG specific reaction surfaces. Antibodies or DVD-Ig to be captured as a ligand (25 μg/ml) were injected over reaction matrices at a flow rate of 5 μl/min. The association and dissociation rate constants, kₒₙ (M⁻¹s⁻¹) and koff (s⁻¹) were determined under a continuous flow rate of 25 μl/min. Rate constants were derived by making kinetic binding measurements at different antigen concentrations ranging from 10−200 nM. The equilibrium dissociation constant (M) of the reaction between antibodies or DVD-Igs and the target antigen was then calculated from the kinetic rate constants by the following formula: KD=koff/kₒₙ. Binding was recorded as a function of time and kinetic rate constants are calculated.

[2] = target: T2, Recombinant Human IL-1β (human, UniProt P01584 117-269); assay: Biacore SPR; C-terminal VD
T2 construct: bought reagent; also called IL-1B
Procedure: as §1

Row | Kd [1] [nM] | koff [1] [s⁻¹] | kon [1] [M⁻¹ s⁻¹] | Kd [2] [nM] | koff [2] [s⁻¹] | kon [2] [M⁻¹ s⁻¹] | Binder
1 | 0.12 | 2.3e-05 | 190000 | 1.4 | 0.00045 | 320000 | DVD1279 (bispecific antibody, human IgG1, kappa, DVD-Ig, outer AB274, inner AB271, linker set 1; V1 wt hIgG1, V2 kappa; also called DVD1279H; DVD1279L) heavy: not shown light: EIVLTQSPDFQSVTPKEKVTITCRASQDIGSELHWYQQKPDQPPKLLIKYASHSTSGVPSRFSGSGSGTDFTLTINGLEAEDAGTYYCHQTDSLPYTFGPGTKVDIKRTVAAPDTVVTQSPAFLSVTPGEKVTITCITSTDIDVDMNWYQQKPDQPPKLLISQGNTLRPGVPSRFSSSGSGTDFTFTISSLEAEDAATYYCLQSDNLPLTFGQGTKLEIKRTVAAPSVFIFPPSDEQLKSGTASVVCLLNNFYPREAKVQWKVDNALQSGNSQESVTEQDSKDSTYSLSSTLTLSKADYEKHKVYACEVTHQGLSSPVTKSFNRGEC
2 | 0.2 | 2.2e-05 | 110000 | 0.27 | 0.00019 | 690000 | DVD1273 (bispecific antibody, human IgG1, kappa, V1 wt hIgG1, V2 kappa; also called DVD1273H; DVD1273L) heavy: not shown light: EIVLTQSPDFQSVTPKEKVTITCRASQDIGSELHWYQQKPDQPPKLLIKYASHSTSGVPSRFSGSGSGTDFTLTINGLEAEDAGTYYCHQTDSLPYTFGPGTKVDIKRTVAAPDIQMTQSPSSLSASVGDRVTITCRASGNIHNYLTWYQQTPGKAPKLLIYNAKTLADGVPSRFSGSGSGTDYTFTISSLQPEDIATYYCQHFWSIPYTFGQGTKLQITRTVAAPSVFIFPPSDEQLKSGTASVVCLLNNFYPREAKVQWKVDNALQSGNSQESVTEQDSKDSTYSLSSTLTLSKADYEKHKVYACEVTHQGLSSPVTKSFNRGEC
3 | 0.46 | 5.8e-05 | 130000 | 0.1 | 0.00026 | 2.5e+06 | DVD1283 (bispecific antibody, human IgG1, kappa, V1 wt hIgG1, V2 kappa; also called DVD1283H; DVD1283L) heavy: not shown light: EIVLTQSPDFQSVTPKEKVTITCRASQNIGSELHWYQQKPDQSPKLLIKYASHSISGVPSRFSGSGSGTDFTLTINGLEAEDAATYYCHQSDTLPHTFGQGTKVDIKRTVAAPDIQMTQSPSSLSASVGDRVTITCRASGNIHNYLTWYQQTPGKAPKLLIYNAKTLADGVPSRFSGSGSGTDYTFTISSLQPEDIATYYCQHFWSIPYTFGQGTKLQITRTVAAPSVFIFPPSDEQLKSGTASVVCLLNNFYPREAKVQWKVDNALQSGNSQESVTEQDSKDSTYSLSSTLTLSKADYEKHKVYACEVTHQGLSSPVTKSFNRGEC
4 | 0.15 | 2.1e-05 | 140000 | 0.15 | 0.00011 | 760000 | DVD1275 (bispecific antibody, human IgG1, kappa, V1 wt hIgG1, V2 kappa; also called DVD1275H; DVD1275L) heavy: not shown light: EIVLTQSPDFQSVTPKEKVTITCRASQDIGSELHWYQQKPDQPPKLLIKYASHSTSGVPSRFSGSGSGTDFTLTINGLEAEDAGTYYCHQTDSLPYTFGPGTKVDIKRTVAAPDIQMTQSPSSLSASVGDRVTITCRASGNIHNYLTWYQQTPGKAPKLLIYNAKTLADGVPSRFSGSGSGTDYTFTISSLQPEDIATYYCQHFWSIPYTFGQGTKLQITRTVAAPSVFIFPPSDEQLKSGTASVVCLLNNFYPREAKVQWKVDNALQSGNSQESVTEQDSKDSTYSLSSTLTLSKADYEKHKVYACEVTHQGLSSPVTKSFNRGEC
5 | ≤ 0.066 | ≤ 1e-05 | 150000 | 1.1 | 0.00041 | 370000 | DVD1267 (bispecific antibody, human IgG1, kappa, DVD-Ig, outer AB273, inner AB270, linker set 1; V1 wt hIgG1, V2 kappa; also called DVD1267H; DVD1267L) heavy: not shown light: DIQMTQSPSSLSASVGDRVTITCRASSGIISYIDWFQQKPGKAPKRLIYATFDLASGVPSRFSGSGSGTDYTLTISSLQPEDFATYYCRQVGSYPETFGQGTKLEIKRTVAAPDTQVTQSPSSLSASVGDRVTITCITSTDIDVDMNWYQQKPGKPPKLLISQGNTLRPGVPSRFSSSGSGTDFTFTISSLQPEDFATYYCLQSDNLPLTFGQGTKLEIKRTVAAPSVFIFPPSDEQLKSGTASVVCLLNNFYPREAKVQWKVDNALQSGNSQESVTEQDSKDSTYSLSSTLTLSKADYEKHKVYACEVTHQGLSSPVTKSFNRGEC
6 | 0.11 | 1.2e-05 | 110000 | 2.2 | 0.00071 | 320000 | DVD1271 (bispecific antibody, human IgG1, kappa, DVD-Ig, outer AB273, inner AB272, linker set 1; V1 wt hIgG1, V2 kappa; also called DVD1271H; DVD1271L) heavy: not shown light: DIQMTQSPSSLSASVGDRVTITCRASSGIISYIDWFQQKPGKAPKRLIYATFDLASGVPSRFSGSGSGTDYTLTISSLQPEDFATYYCRQVGSYPETFGQGTKLEIKRTVAAPETTVTQSPSSLSASVGDRVTITCITSTDIDVDMNWYQQKPGKPPKLLISQGNTLRPGVPSRFSSSGSGTDFTFTISSLQPEDFATYYCLQSDNLPLTFGQGTKLEIKRTVAAPSVFIFPPSDEQLKSGTASVVCLLNNFYPREAKVQWKVDNALQSGNSQESVTEQDSKDSTYSLSSTLTLSKADYEKHKVYACEVTHQGLSSPVTKSFNRGEC
7 | 0.032 | 5e-06 | 160000 | 1.1 | 0.00043 | 400000 | DVD1269 (bispecific antibody, human IgG1, kappa, DVD-Ig, outer AB273, inner AB271, linker set 1; V1 wt hIgG1, V2 kappa; also called DVD1269H; DVD1269L) heavy: not shown light: DIQMTQSPSSLSASVGDRVTITCRASSGIISYIDWFQQKPGKAPKRLIYATFDLASGVPSRFSGSGSGTDYTLTISSLQPEDFATYYCRQVGSYPETFGQGTKLEIKRTVAAPDTVVTQSPAFLSVTPGEKVTITCITSTDIDVDMNWYQQKPDQPPKLLISQGNTLRPGVPSRFSSSGSGTDFTFTISSLEAEDAATYYCLQSDNLPLTFGQGTKLEIKRTVAAPSVFIFPPSDEQLKSGTASVVCLLNNFYPREAKVQWKVDNALQSGNSQESVTEQDSKDSTYSLSSTLTLSKADYEKHKVYACEVTHQGLSSPVTKSFNRGEC
8 | 0.061 | 7.8e-06 | 130000 | 0.17 | 0.00015 | 890000 | DVD1263 (bispecific antibody, human IgG1, kappa, V1 wt hIgG1, V2 kappa; also called DVD1263H; DVD1263L) heavy: not shown light: DIQMTQSPSSLSASVGDRVTITCRASSGIISYIDWFQQKPGKAPKRLIYATFDLASGVPSRFSGSGSGTDYTLTISSLQPEDFATYYCRQVGSYPETFGQGTKLEIKRTVAAPDIQMTQSPSSLSASVGDRVTITCRASGNIHNYLTWYQQTPGKAPKLLIYNAKTLADGVPSRFSGSGSGTDYTFTISSLQPEDIATYYCQHFWSIPYTFGQGTKLQITRTVAAPSVFIFPPSDEQLKSGTASVVCLLNNFYPREAKVQWKVDNALQSGNSQESVTEQDSKDSTYSLSSTLTLSKADYEKHKVYACEVTHQGLSSPVTKSFNRGEC
9 | 0.096 | 1.1e-05 | 120000 | 0.088 | 0.0003 | 3.4e+06 | DVD1265 (bispecific antibody, human IgG1, kappa, V1 wt hIgG1, V2 kappa; also called DVD1265H; DVD1265L) heavy: not shown light: DIQMTQSPSSLSASVGDRVTITCRASSGIISYIDWFQQKPGKAPKRLIYATFDLASGVPSRFSGSGSGTDYTLTISSLQPEDFATYYCRQVGSYPETFGQGTKLEIKRTVAAPDIQMTQSPSSLSASVGDRVTITCRASGNIHNYLTWYQQTPGKAPKLLIYNAKTLADGVPSRFSGSGSGTDYTFTISSLQPEDIATYYCQHFWSIPYTFGQGTKLQITRTVAAPSVFIFPPSDEQLKSGTASVVCLLNNFYPREAKVQWKVDNALQSGNSQESVTEQDSKDSTYSLSSTLTLSKADYEKHKVYACEVTHQGLSSPVTKSFNRGEC
10 | 0.16 | 2.2e-05 | 130000 | 2.1 | 0.00049 | 230000 | DVD1277 (bispecific antibody, human IgG1, kappa, DVD-Ig, outer AB274, inner AB270, linker set 1; V1 wt hIgG1, V2 kappa; also called DVD1277H; DVD1277L) heavy: not shown light: EIVLTQSPDFQSVTPKEKVTITCRASQDIGSELHWYQQKPDQPPKLLIKYASHSTSGVPSRFSGSGSGTDFTLTINGLEAEDAGTYYCHQTDSLPYTFGPGTKVDIKRTVAAPDTQVTQSPSSLSASVGDRVTITCITSTDIDVDMNWYQQKPGKPPKLLISQGNTLRPGVPSRFSSSGSGTDFTFTISSLQPEDFATYYCLQSDNLPLTFGQGTKLEIKRTVAAPSVFIFPPSDEQLKSGTASVVCLLNNFYPREAKVQWKVDNALQSGNSQESVTEQDSKDSTYSLSSTLTLSKADYEKHKVYACEVTHQGLSSPVTKSFNRGEC
11 | 0.1 | 2e-05 | 200000 | 2 | 0.00058 | 280000 | DVD1281 (bispecific antibody, human IgG1, kappa, DVD-Ig, outer AB274, inner AB272, linker set 1; V1 wt hIgG1, V2 kappa; also called DVD1281H; DVD1281L) heavy: not shown light: EIVLTQSPDFQSVTPKEKVTITCRASQDIGSELHWYQQKPDQPPKLLIKYASHSTSGVPSRFSGSGSGTDFTLTINGLEAEDAGTYYCHQTDSLPYTFGPGTKVDIKRTVAAPETTVTQSPSSLSASVGDRVTITCITSTDIDVDMNWYQQKPGKPPKLLISQGNTLRPGVPSRFSSSGSGTDFTFTISSLQPEDFATYYCLQSDNLPLTFGQGTKLEIKRTVAAPSVFIFPPSDEQLKSGTASVVCLLNNFYPREAKVQWKVDNALQSGNSQESVTEQDSKDSTYSLSSTLTLSKADYEKHKVYACEVTHQGLSSPVTKSFNRGEC
